This is an account of results in publication PMC4304120.

The target of assay [1] is thrombin. Description: SPR; BIAcore T100; thrombin (2000 RU) amine-coupled to a CM5 chip; RGD-hirudin or mutants injected at 30 uL/min in 10 mM HEPES, 150 mM NaCl, 0.005% Surfactant P20, pH 7.5; 1:1 Langmuir fit, KD calculated from ka and kd.
Assay [2] addresses thrombin.

For the substance RGD-hirudin Q53A, in the assay with thrombin [1], the Kd – broadly, the concentration at which binding is half-saturated – was 570 nM; the koff (as a rule, the first-order rate constant of dissociation) was 3.37e-05 s⁻¹; the kon (usually the second-order rate constant of association) is 59.2 M⁻¹ s⁻¹. In the assay with thrombin [2], this substance came in with an anti-thrombin specific activity (Titration Testing Method, plasma clotting) of 14000 ATU/mg.

As for RGD-hirudin I59A, in the assay with thrombin [1], the Kd is 19000 nM, the koff is 0.00139 s⁻¹ and the on-rate constant (kon) was 73 M⁻¹ s⁻¹. For the same substance, in the assay with thrombin [2], the anti-thrombin specific activity (Titration Testing Method, plasma clotting) was determined as 9000 ATU/mg.

As to RGD-hirudin Y3A, the koff in the assay with thrombin [1] is 0.00288 s⁻¹. Further, the anti-thrombin specific activity (Titration Testing Method, plasma clotting) with thrombin [2] was 4000 ATU/mg.

On to RGD-hirudin E57A, for which, in the assay with thrombin [1], the Kd is 2410 nM, the koff was 0.000374 s⁻¹ and the kon was 155 M⁻¹ s⁻¹. Moreover, in the assay with thrombin [2], the anti-thrombin specific activity (Titration Testing Method, plasma clotting) amounted to 11000 ATU/mg.

As for recombinant RGD-hirudin, in the assay with thrombin [1], the Kd was 15.5 nM, the koff is 2.73e-05 s⁻¹ and the kon was 1770 M⁻¹ s⁻¹. Moreover, the anti-thrombin specific activity (Titration Testing Method, plasma clotting) with thrombin [2] came to 18000 ATU/mg.

For the substance RGD-hirudin S50A, in the assay with thrombin [1], the Kd was 35 nM, the koff is 3.94e-05 s⁻¹ and the kon is 1120 M⁻¹ s⁻¹. The anti-thrombin specific activity (Titration Testing Method, plasma clotting) with thrombin [2] was 16000 ATU/mg.

Take RGD-hirudin D55A: in the assay with thrombin [1], the Kd was 1030 nM, the koff is 0.000383 s⁻¹ and the kon is 371 M⁻¹ s⁻¹. The anti-thrombin specific activity (Titration Testing Method, plasma clotting) with thrombin [2] turned out to be 12000 ATU/mg.
